One block for each molecule: values may come before it.
Experiments:
rOs1BGlu4 = biological target: T1, rOs1BGlu4 (Oryza sativa, UniProt Q5N863); experiment: inhibition of pNPGlc hydrolysis, […] nm; assay type: biochemical; conditions: read-out: Relative activity remaining (%)
T1 construct: gene BGLU4; full-length ORF (483 aa, no signal peptide, about 55 kDa) in pET32a(+), E. coli Origami B(DE3); Trx-His6 tag removed with enterokinase
T1 sequence (Q5N863 1-483): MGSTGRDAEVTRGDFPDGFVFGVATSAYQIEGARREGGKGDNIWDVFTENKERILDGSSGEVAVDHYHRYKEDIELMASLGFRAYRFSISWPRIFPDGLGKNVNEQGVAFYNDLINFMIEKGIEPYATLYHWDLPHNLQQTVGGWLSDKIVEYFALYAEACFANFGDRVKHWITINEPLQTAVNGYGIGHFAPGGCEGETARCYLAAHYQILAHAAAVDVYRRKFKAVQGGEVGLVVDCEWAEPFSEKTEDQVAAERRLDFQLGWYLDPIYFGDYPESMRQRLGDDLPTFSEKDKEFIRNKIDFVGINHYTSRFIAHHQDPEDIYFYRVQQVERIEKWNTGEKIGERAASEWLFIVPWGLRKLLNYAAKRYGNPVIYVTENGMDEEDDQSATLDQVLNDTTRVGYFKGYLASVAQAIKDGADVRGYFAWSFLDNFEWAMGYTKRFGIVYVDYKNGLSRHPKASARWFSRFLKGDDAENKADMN

purified protein [1] = substrate: O=[N+]([O-])c1ccc(O[C@@H]2OC[C@H](O)[C@H](O)[C@H]2O)cc1; experiment: purified protein; assay type: biochemical, Oryza sativa; conditions: 50 mM sodium phosphate pH 6.5, 30°C (standard assay)
purified protein [2] = substrate: C[C@H]1O[C@@H](Oc2ccc([N+](=O)[O-])cc2)[C@H](O)[C@@H](O)[C@H]1O; experiment: purified protein; assay type: biochemical, Oryza sativa; conditions: 50 mM sodium phosphate pH 6.5, 30°C (standard assay)
purified protein [3] = substrate: O=[N+]([O-])c1ccc(O[C@@H]2O[C@H](CO)[C@H](O)[C@H](O)[C@H]2O)cc1; experiment: purified protein; conditions: 50 mM sodium phosphate pH 6.5, 30°C (standard assay)
purified protein [4] = substrate: O=[N+]([O-])c1ccc(O[C@@H]2O[C@H](CO)[C@@H](O)[C@H](O)[C@H]2O)cc1; experiment: purified protein; conditions: 50 mM sodium phosphate pH 6.5, 30°C (standard assay)
purified protein [5] = substrate: O=[N+]([O-])c1ccc(O[C@@H]2O[C@H](CO)[C@@H](O)[C@H](O)[C@@H]2O)cc1; experiment: purified protein; conditions: 50 mM sodium phosphate pH 6.5, 30°C (standard assay)
[6] = substrate: O=[N+]([O-])c1ccc(O[C@@H]2O[C@H](CO)[C@@H](O[C@@H]3O[C@H](CO)[C@@H](O)[C@H](O)[C@H]3O)[C@H](O)[C@H]2O)cc1; experiment: initial-rate hydrolysis, glucose release by peroxidase/glucose oxidase assay, nonlinear Michaelis-Menten fit; assay type: biochemical, Oryza sativa; conditions: 50 mM sodium phosphate pH 6.5, 30°C (standard assay)

remaining activity at 10000 µM (rOs1BGlu4): 73%
Molecule: OC[C@H]1OC(O)[C@@H](O)[C@@H](O)[C@@H]1O (stereo partly drawn) [D-Mannose]

remaining activity at 1000 µM (rOs1BGlu4): 14%
Molecule: O=C1O[C@H](CO)[C@@H](O)[C@H](O)[C@H]1O [δ-glucono-lactone]

Molecule: N[C@H]1C(O)O[C@H](CO)[C@@H](O)[C@@H]1O (stereo partly drawn) [D-Glucosamine]
remaining activity at 10000 µM (rOs1BGlu4): 84%

remaining activity at 10000 µM (rOs1BGlu4): 90%
Molecule: OC[C@H]1OC(O)[C@H](O)[C@@H](O)[C@@H]1O (stereo partly drawn) [D-Glucose]

remaining activity at 10000 µM (rOs1BGlu4): 85%
Molecule: OC1OC[C@@H](O)[C@H](O)[C@H]1O (stereo partly drawn) [D-Xylose]

remaining activity at 10000 µM (rOs1BGlu4): 93%
Molecule: OC[C@H]1OC(O)[C@H](O)[C@@H](O)[C@H]1O (stereo partly drawn) [D-Galactose]

remaining activity at 10000 µM (rOs1BGlu4): 61%
Molecule: OC1OC[C@H](O)[C@H](O)[C@H]1O (stereo partly drawn) [L-Arabinose]

B1: rOs1BGlu4 (Oryza sativa Japonica Group) (protein)
chain: T1 sequence (Q5N863 1-483)
notes: full-length ORF (483 aa, no signal peptide, about 55 kDa) in pET32a(+), E. coli Origami B(DE3); Trx-His6 tag removed with enterokinase
Km (purified protein [1]): 380 ± 20 µM
kcat (purified protein [1]): 0.52 s⁻¹
kcat/Km (purified protein [1]): 1370 M⁻¹ s⁻¹
Km (purified protein [2]): 710 ± 20 µM
kcat (purified protein [2]): 6.61 ± 0.08 s⁻¹
kcat/Km (purified protein [2]): 9340 M⁻¹ s⁻¹
Km (purified protein [3]): 7330 ± 320 µM
kcat (purified protein [3]): 3.16 s⁻¹
kcat/Km (purified protein [3]): 430 M⁻¹ s⁻¹
Km (purified protein [4]): 710 ± 20 µM
kcat (purified protein [4]): 12.8 s⁻¹
kcat/Km (purified protein [4]): 17900 M⁻¹ s⁻¹
Km (purified protein [5]): 2240 ± 30 µM
kcat (purified protein [5]): 1.25 s⁻¹
kcat/Km (purified protein [5]): 560 M⁻¹ s⁻¹
Km [6]: 140 ± 10 µM
kcat [6]: 3.44 ± 0.18 s⁻¹
kcat/Km [6]: 24400 M⁻¹ s⁻¹
